# Source: FireProtDB (doi:10.1021/bi00009a043)
# Where “and” joins values, the source holds several entries; their conditions need not be identical. Identical values can stand only once.
# Conditions: Danio rerio; pH 8; Thermal; DSC; Tris 20 mM; KCl 0.6 M; transition: 3; reversible: no
# Tropomyosin alpha-1 chain wild type, P13104, sequence (P13104 whole entry): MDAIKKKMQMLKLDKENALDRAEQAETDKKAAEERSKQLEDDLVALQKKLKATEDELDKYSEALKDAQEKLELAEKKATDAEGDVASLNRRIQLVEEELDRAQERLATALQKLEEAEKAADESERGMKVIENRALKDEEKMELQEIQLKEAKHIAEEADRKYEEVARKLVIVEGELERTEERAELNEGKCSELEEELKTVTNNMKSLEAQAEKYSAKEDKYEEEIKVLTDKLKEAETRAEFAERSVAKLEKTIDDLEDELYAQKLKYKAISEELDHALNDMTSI
substance,measurement,value
"Tropomyosin alpha-1 chain wild type, P13104",unfolding enthalpy (van 't Hoff),118 kcal/mol and 124 kcal/mol and 151 kcal/mol
